Measured values published in US11141462B2, “Method for the treatment or prevention of osteoarthritis” (Chondropeptix B.V., priority 2016, dated 2021).

Key:
[1] = test system: OA articular chondrocytes; test: OA chondrocyte phenotype gene expression screening of BMP-7 peptides (RT-qPCR); assay type: cell-based, human; settings: independent of the tested concentration (1000, 100, 10 and 1 nM were tested)
Experimental: (§1) FIG. 2: The action of 20-mer peptides (10 nM) of SEQ ID NO: 2-17 (peptides with 1 or 2 amino acids intervals (18-19 amino acid overlap)) and a random peptide with a sequence according to SEQ ID NO: 49 on the expression of ADAMTS5 was determined on a validated pool of passage 2 OA human articular chondrocytes (n=18) and compared to full-length recombinant BMP-7 (1 nM). Samples were harvested after 24 hours and analyzed for indicated genes by RT-qPCR (normalized for 28S rRNA expression and relative to control conditions (no peptide exposure)). In the graphs, numbers on the x-axis represent individual peptides according to their SEQ ID NO's, error bars represent mean±SEM, statistical differences were calculated (one-way ANOVA with bonferroni correction) to control condition. *=p<0.05 lower than control condition for ADAMTS5. Random peptide is a peptide according to SEQ ID NO: 49.
as §1, with “3:” for “2:”, “ALP” for “ADAMTS5”, “ALP.” for “ADAMTS5.”
as §1, with “4:” for “2:”, “BAPX1/NKX3.2” for “ADAMTS5”, “BAPX1/NKX3.2.” for “ADAMTS5.”
as §1, with “5:” for “2:”, “COL10A1” for “ADAMTS5”, “COL10A1.” for “ADAMTS5.”
FIG. 6: The action of 20-mer peptides (10 nM) of SEQ ID NO: 2-17 (peptides with 1 or 2 amino acids intervals (18-19 amino acid overlap)) and a random peptide with a sequence according to SEQ ID NO: 49 on the expression of IL-6 was determined on a validated pool of passage 2 OA human articular chondrocytes (n=18) and compared to full-length recombinant BMP-7 (1 nM). […]

Cartilage explants = test: Safranin-O staining of glycosaminoglycans in cartilage explants; assay type: cell-based, human; settings: 14 days, explants from 2 patients, compared to control
Experimental: Cartilage explants obtained from 2 patients were cultured for 14 days in the presence of BMP-7 (1 nM) or BMP-7 mimicking peptide […] (SEQ ID NO: 13) at 10 nM. Glycosaminoglycans (GAGs), an important component of the extracellular matrix (ECM), were stained with Safranin-O (in red) and other tissues are counterstained with Fast green (in green/blue).

[2] = test system: Cartilage explants from OA patient's knee cartilage; test: PGE2 ELISA, cartilage explants; assay type: cell-based, human; settings: 14 days
Experimental: Cartilage explants of 3 mm^2 were taken from OA patient's knee cartilage (n=6) and treated with BMP-7 (1 nM), with peptide […] (SEQ ID NO: 13) at 10 nM or a scrambled irrelevant control peptide (10 nM) for 14 days. Prostaglandin E2 (PGE2) levels, a pro-hypertrophic factor, were determined via an ELISA.

[3] = test system: Synovial tissue samples from OA patients; test: PGE2 ELISA, synovial tissue samples; assay type: cell-based, human; settings: 24 h
Experimental: Synovial tissue samples from OA patients (n=6) were treated with BMP-7 (1 nM), with peptide […] (SEQ ID NO: 13) at 10 nM or a scrambled irrelevant control peptide (10 nM) for 24 h. PGE2 levels were determined via an ELISA.

[4] = test system: Hoffa's fat pad tissue samples from OA patients; test: PGE2 ELISA, Hoffa's fat pad tissue samples; assay type: cell-based, human; settings: 24 h
Experimental: Hoffa's fat pad tissue samples from OA patients (n=6) were treated with BMP-7 (1 nM) with peptide […] (SEQ ID NO: 13) at 10 nM or a scrambled irrelevant control peptide (10 nM) for 24 h. PGE2 levels were determined via an ELISA.

[5] = test system: Meniscus tissue samples from OA patients; test: PGE2 ELISA, meniscus tissue samples; assay type: cell-based, human; settings: 24 h
Experimental: Meniscus tissue samples from OA patients (n=6) were treated with BMP-7 (1 nM) with peptide peptide […] (SEQ ID NO: 13) at 10 nM or a scrambled irrelevant control peptide (10 nM) for 24 h. PGE2 levels were determined via an ELISA.

[6] = test system: Osteoarthritis chondrocytes; test: BMP-7 rescue of OA-associated chondrocyte phenotype (FIG. 1); assay type: cell-based
Experimental: FIG. 1: BMP-7 rescues OA-associated chondrocyte phenotype. Osteoarthritis chondrocytes display a typical phenotype that is characterized by decreased expression of SOX9, COL2A1 and BAPX1/NKX3.2 and an increased expression of COX-2 and IL-6 mRNAs (see left panel).
Functional ALP enzyme activity in cell lysates and PGE2 secretion in the culture medium was also normalized upon BMP-7 treatment of OA chondrocytes (right panel).
Expression of indicated mRNAs was determined by RT-qPCR, relatively to control conditions (normalized for 28S rRNA expression). In graphs, error bars represent mean±SEM, statistical differences were calculated as compared to healthy condition. *=p<0.05.

[7] = test system: Isolated chondrocytes from OA patients; test: Treatment of isolated chondrocytes from OA patients, gene expression by qRT-PCR; assay type: cell-based, human; settings: 1 nM, 24 h; qRT-PCR normalized for 28S rRNA; n=6
Experimental: Isolated chondrocytes from OA patients (n=6) were treated with BMP-7 (1 nM) or the 12-mer peptide according to SEQ ID NO: 43 (1 nM) for 24 h. Pro-chondrogenic (FIG. 8A) and hypertrophic (FIGS. 8B, 8C and 8D) gene expression was determined via qRT-PCR and normalized for 28S rRNA levels.

[8] = test system: cartilage explants from OA patient's knee articular cartilage; test: Treatment of cartilage explants, hypertrophic gene expression by qRT-PCR; assay type: cell-based, human; settings: 1 nM, 24 h
Experimental: 4 mm 2 cartilage explants were taken from non-lesion areas of OA patient's knee articular cartilage (n=5) and randomly assigned to different experimental treatment conditions (4 explants per treatment group). After a 24 h equilibration period the explants were treated with BMP-7 (1 nM) or the 12-mer peptide according to SEQ ID NO: 43 (10 nM) for 24 h. Hypertrophic gene expression was determined via qRT-PCR and normalized for 28S rRNA levels. After treatment with BMP-7 or the 12 mer we observed a downregulation of pro-hypertrophic genes, such as Col10a1 (FIG. 9A) and MMP13 (FIG. 9B).

[9] = test system: IL-1β-exposed chondrocytes; settings: cited from earlier work
OA chondrocytes = settings: cited from earlier work
OA in rats = settings: intra-articular administration; cited from earlier work
OA patients = settings: phase-1 clinical trial in OA patients; intra-articular injection; cited from earlier work
[10] = BMP-7 1 nM, OA chondrocytes, RT-qPCR normalized for 28S rRNA
[11] = BMP-7 treatment of OA chondrocytes

SVLYFDDSSNVILKKYRNMV (listed as Homo sapiens) [SEQ ID NO: 13]
suppression of the OA chondrocyte phenotype [1]: efficiently suppressed the OA chondrocyte phenotype | Safranin-O intensity (glycosaminoglycans) (Cartilage explants; 10 nM): increased Safranin-O intensity | PGE2 levels ([2]; 10 nM): reduce PGE2 levels | PGE2 levels ([3]; 10 nM): reduce PGE2 levels | PGE2 levels ([4]; 10 nM): reduce PGE2 levels | PGE2 levels ([5]; 10 nM): reduce PGE2 levels

B1: BMP-7: full-length recombinant human bone morphogenetic protein-7; mature polypeptide of 139 amino acids (protein, listed as Homo sapiens)
chain: STGSKQRSQNRSKTPKNQEALRMANVAENSSSDQRQACKKHELYVSFRDLGWQDWIIAPEGYAAYYCEGECAFPLNSYMNATNHAIVQTLVHFINPETVPKPCCAPTQLNAISVLYFDDSSNVILKKYRNMVVRACGCH
BMP-7 concentration at which OA chondrocyte-phenotype suppressive action is most pronounced [6]: around 1 nM | BAPX1/NKX3.2 mRNA expression [6, 10]: normalizing expression | COL2A1 mRNA expression [6, 10]: normalizing expression | COX-2 mRNA expression [6, 10]: normalizing expression | IL-6 mRNA expression [6, 10]: normalizing expression | SOX9 mRNA expression [6, 10]: normalizing expression | effects on the chondrocyte phenotype ([6]; BMP-7 concentrations higher than 1 nM (eg 10 nM or 100 nM)): opposite and negative effects | Functional ALP enzyme activity in cell lysates [6, 11]: normalized | PGE2 secretion in the culture medium [6, 11]: normalized | COL10A1 (pro-hypertrophic) gene expression [7]: downregulation | COX-2 (pro-hypertrophic) gene expression [7]: downregulation | Col2a1 (pro-chondrogenic) gene expression [7]: upregulation | RUNX2 (pro-hypertrophic) gene expression [7]: downregulation | Col10a1 gene expression [8]: downregulation | MMP13 gene expression [8]: downregulation | Safranin-O intensity (glycosaminoglycans) (Cartilage explants; 1 nM): increased Safranin-O intensity | PGE2 levels ([2]; 1 nM): reduce PGE2 levels | PGE2 levels ([3]; 1 nM): reduce PGE2 levels | PGE2 levels ([4]; 1 nM): reduce PGE2 levels | PGE2 levels ([5]; 1 nM): reduce PGE2 levels | MMP13 expression [9]: decreases | proteoglycan synthesis (OA chondrocytes): stimulates | OA development and progression (OA in rats): protects against OA development and delays progression of OA | adverse events (OA patients): no serious adverse events
